In this series the target is ETS1:RUNX1 (Homo sapiens, UniProt P14921;Q01196 full;full). The series can be described thus: gcPBM; 1 nM ETS1 + 25 nM RUNX1, anti-ETS1 signal, normalised. The note with it: tags: N-terminal GST (pDEST15), kept (PMC6008103); copies: 1;1; label: surface-attached array probe.
Sequence of ETS1:RUNX1 (P14921 whole entry, chain 1 of 2): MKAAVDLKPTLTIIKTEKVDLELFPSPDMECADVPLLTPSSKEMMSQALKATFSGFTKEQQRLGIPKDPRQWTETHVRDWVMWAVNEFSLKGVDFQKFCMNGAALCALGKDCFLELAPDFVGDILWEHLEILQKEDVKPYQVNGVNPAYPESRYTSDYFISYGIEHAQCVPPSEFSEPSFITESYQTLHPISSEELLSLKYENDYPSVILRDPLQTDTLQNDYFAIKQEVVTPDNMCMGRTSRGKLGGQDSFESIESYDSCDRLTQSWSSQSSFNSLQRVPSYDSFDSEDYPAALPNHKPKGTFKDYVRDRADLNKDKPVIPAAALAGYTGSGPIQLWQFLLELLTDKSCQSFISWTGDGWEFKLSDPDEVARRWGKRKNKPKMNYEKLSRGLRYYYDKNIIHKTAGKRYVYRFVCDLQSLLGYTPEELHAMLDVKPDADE
Sequence of ETS1:RUNX1 (Q01196 whole entry, chain 2 of 2): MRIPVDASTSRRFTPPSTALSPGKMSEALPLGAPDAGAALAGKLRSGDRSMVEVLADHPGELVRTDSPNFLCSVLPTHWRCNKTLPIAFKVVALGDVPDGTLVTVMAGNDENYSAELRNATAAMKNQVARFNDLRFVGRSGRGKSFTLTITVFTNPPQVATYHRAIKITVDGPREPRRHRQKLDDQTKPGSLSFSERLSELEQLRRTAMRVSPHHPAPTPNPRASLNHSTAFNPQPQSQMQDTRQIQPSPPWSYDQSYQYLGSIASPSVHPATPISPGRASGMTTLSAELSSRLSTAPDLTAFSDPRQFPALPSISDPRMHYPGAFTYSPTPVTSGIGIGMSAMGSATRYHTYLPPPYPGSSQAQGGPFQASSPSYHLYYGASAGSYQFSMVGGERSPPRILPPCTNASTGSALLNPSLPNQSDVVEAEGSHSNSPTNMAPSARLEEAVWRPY

B1: Table S2 A row 223 (dsDNA)
DNA 1: AGGGAACAGGAAATGCAAAAAACCACAAGGGACAAG
DNA 2: CTTGTCCCTTGTGGTTTTTTGCATTTCCTGTTCCCT
On to B1, for which the binding signal was 18100 PBM fluorescence, median of replicate spots.

B2: Table S2 A row 166 (dsDNA)
DNA 1: GATATGGCAGGAAGTAGGGCCTGGAAACCGCACGGC
DNA 2: GCCGTGCGGTTTCCAGGCCCTACTTCCTGCCATATC
B2: the binding signal is 25500 PBM fluorescence, median of replicate spots.

B3: Table S2 A row 270 (dsDNA)
DNA 1: CTCATTGACAGGAAGTCTAACCACAGGCTTAGGCCC
DNA 2: GGGCCTAAGCCTGTGGTTAGACTTCCTGTCAATGAG
For B3, the binding signal is 29200 PBM fluorescence, median of replicate spots.

B4: Table S2 A row 1295 (dsDNA)
DNA 1: GCTCTGGGTCACACAGGATGTGGTTTTTGAAGTTTG
DNA 2: CAAACTTCAAAAACCACATCCTGTGTGACCCAGAGC
As to B4, the binding signal is 49000 PBM fluorescence, median of replicate spots.

B5: Table S2 A row 1146 (dsDNA)
DNA 1: GACACAAGCCTCACAGGATGTGGTCAAAGAAGGTTG
DNA 2: CAACCTTCTTTGACCACATCCTGTGAGGCTTGTGTC
Consider B5, for which the binding signal was 20600 PBM fluorescence, median of replicate spots.

B6: Table S2 A row 964 (dsDNA)
DNA 1: AATCTGAAACAGGAAATAAGTCTGTGGTTGTGTGTT
DNA 2: AACACACAACCACAGACTTATTTCCTGTTTCAGATT
Take B6: the binding signal is 23600 PBM fluorescence, median of replicate spots.

B7: Table S2 A row 966 (dsDNA)
DNA 1: GGCCTTCATTACACAGGATGCGGTTGAAATGCATCA
DNA 2: TGATGCATTTCAACCGCATCCTGTGTAATGAAGGCC
B7: the binding signal was 18400 PBM fluorescence, median of replicate spots.

B8: Table S2 A row 706 (dsDNA)
DNA 1: TAGCCACGAACCGGAAACGTTAAACCACAGCTCCGT
DNA 2: ACGGAGCTGTGGTTTAACGTTTCCGGTTCGTGGCTA
As to B8, the binding signal is 46400 PBM fluorescence, median of replicate spots.

B9: Table S2 A row 644 (dsDNA)
DNA 1: GCCGGCGGCCGGAAGTCTATCCCGCAGAAGCGCAGC
DNA 2: GCTGCGCTTCTGCGGGATAGACTTCCGGCCGCCGGC
Regarding B9, the binding signal was 19100 PBM fluorescence, median of replicate spots.

B10: Table S2 A row 987 (dsDNA)
DNA 1: TGGGCAGGAAGTGGTATCTGATTGTGGTTTTGATTT
DNA 2: AAATCAAAACCACAATCAGATACCACTTCCTGCCCA
In the case of B10, the binding signal is 25700 PBM fluorescence, median of replicate spots.

B11: Table S2 A row 553 (dsDNA)
DNA 1: CCTTGCAGCAACGGATGTGGGTTTTTTTTTTTCTTT
DNA 2: AAAGAAAAAAAAAAACCCACATCCGTTGCTGCAAGG
As to B11, the binding signal is 17200 PBM fluorescence, median of replicate spots.

B12: Table S2 A row 1142 (dsDNA)
DNA 1: ACAATAACAGGAAGTGGTGGGGACTGCGGTGACCTG
DNA 2: CAGGTCACCGCAGTCCCCACCACTTCCTGTTATTGT
For B12, the binding signal is 16500 PBM fluorescence, median of replicate spots.

B13: Table S2 A row 930 (dsDNA)
DNA 1: AGCTCCACCGGAAACGGCCTGGCCGCAGCCAATCAG
DNA 2: CTGATTGGCTGCGGCCAGGCCGTTTCCGGTGGAGCT
For B13, the binding signal was 16700 PBM fluorescence, median of replicate spots.

B14: Table S2 A row 483 (dsDNA)
DNA 1: AACCAAACAGCCACAGGAAGTGGTTTCTGTGATTCA
DNA 2: TGAATCACAGAAACCACTTCCTGTGGCTGTTTGGTT
Consider B14, for which the binding signal was 16800 PBM fluorescence, median of replicate spots.

B15: Table S2 A row 435 (dsDNA)
DNA 1: GACACAAGAACAGCAGGATGTGGTCAGAGGCGTCGT
DNA 2: ACGACGCCTCTGACCACATCCTGCTGTTCTTGTGTC
For B15, the binding signal was 17700 PBM fluorescence, median of replicate spots.

B16: Table S2 A row 1136 (dsDNA)
DNA 1: CCCGCTCACGCCGGAAGTGGTTTGCGTTTTCAAGAT
DNA 2: ATCTTGAAAACGCAAACCACTTCCGGCGTGAGCGGG
Take B16: the binding signal was 22300 PBM fluorescence, median of replicate spots.

B17: Table S2 A row 327 (dsDNA)
DNA 1: AATTGAGACAGGAAATGTTGGTTTGTGGTCAGGCAC
DNA 2: GTGCCTGACCACAAACCAACATTTCCTGTCTCAATT
With B17, the binding signal is 28000 PBM fluorescence, median of replicate spots.

B18: Table S2 A row 1217 (dsDNA)
DNA 1: TGGGGGATGGCAGCAGGATGTGGTTATCTCAGAAAG
DNA 2: CTTTCTGAGATAACCACATCCTGCTGCCATCCCCCA
Take B18: the binding signal is 29000 PBM fluorescence, median of replicate spots.

B19: Table S2 A row 1759 (dsDNA)
DNA 1: CCTGTTGATAAAACAGGATGTGGTAAAGAAGCTGGC
DNA 2: GCCAGCTTCTTTACCACATCCTGTTTTATCAACAGG
On to B19, for which the binding signal is 43300 PBM fluorescence, median of replicate spots.

B20: Table S2 A row 1210 (dsDNA)
DNA 1: CGGGAGGGGCAGGAAGCGGACTGCGGTGGGGAAGGG
DNA 2: CCCTTCCCCACCGCAGTCCGCTTCCTGCCCCTCCCG
Consider B20, for which the binding signal is 16400 PBM fluorescence, median of replicate spots.

B21: Table S2 A row 1758 (dsDNA)
DNA 1: GCTGATAGAACAGGATGTGGTAAAGAAGCAGGCCAA
DNA 2: TTGGCCTGCTTCTTTACCACATCCTGTTCTATCAGC
For the molecule B21, the binding signal was 24600 PBM fluorescence, median of replicate spots.

B22: Table S2 A row 92 (dsDNA)
DNA 1: GTCCCCGTAACAGGATGTGGTGAGCTGTTATACCAC
DNA 2: GTGGTATAACAGCTCACCACATCCTGTTACGGGGAC
As to B22, the binding signal is 19700 PBM fluorescence, median of replicate spots.

B23: Table S2 A row 1401 (dsDNA)
DNA 1: GCATTTACGGGCAGGAAATGAAACCACAGAGTACAA
DNA 2: TTGTACTCTGTGGTTTCATTTCCTGCCCGTAAATGC
As for B23, the binding signal is 36500 PBM fluorescence, median of replicate spots.

B24: Table S2 A row 466 (dsDNA)
DNA 1: GTGCTAGGACACAGGAAGCGATACCACAAAGAACAT
DNA 2: ATGTTCTTTGTGGTATCGCTTCCTGTGTCCTAGCAC
Turning to B24, the binding signal is 19800 PBM fluorescence, median of replicate spots.

B25: Table S2 A row 1206 (dsDNA)
DNA 1: TTGATTGGAGCAGGATGTGGTCAGAACAGTATGCAG
DNA 2: CTGCATACTGTTCTGACCACATCCTGCTCCAATCAA
B25: the binding signal is 23200 PBM fluorescence, median of replicate spots.

B26: Table S2 A row 978 (dsDNA)
DNA 1: ACTGAACAAACCGGATGTGGTTGCCACCTGCAATCT
DNA 2: AGATTGCAGGTGGCAACCACATCCGGTTTGTTCAGT
For the molecule B26, the binding signal was 38500 PBM fluorescence, median of replicate spots.

B27: Table S2 A row 167 (dsDNA)
DNA 1: GACAATGAGCGCACAGGATGTGGTTTGGCGGCAGGG
DNA 2: CCCTGCCGCCAAACCACATCCTGTGCGCTCATTGTC
On to B27, for which the binding signal is 33400 PBM fluorescence, median of replicate spots.

B28: Table S2 A row 443 (dsDNA)
DNA 1: CCATGCACAACAGGATGTGGTTAGACAGTCAAAATT
DNA 2: AATTTTGACTGTCTAACCACATCCTGTTGTGCATGG
Turning to B28, the binding signal was 29600 PBM fluorescence, median of replicate spots.

B29: Table S2 A row 280 (dsDNA)
DNA 1: CCTGCAGCAACAGGATGTGGTTTGAAAGGATGAAAG
DNA 2: CTTTCATCCTTTCAAACCACATCCTGTTGCTGCAGG
Regarding B29, the binding signal was 32100 PBM fluorescence, median of replicate spots.

B30: Table S2 A row 393 (dsDNA)
DNA 1: CTGACGCATTTCCGGCCTTTGCGGTTGATCGGTCAT
DNA 2: ATGACCGATCAACCGCAAAGGCCGGAAATGCGTCAG
As for B30, the binding signal was 30800 PBM fluorescence, median of replicate spots.

Values taken from article PMC10681739, “High-throughput data and modeling reveal insights into the mechanisms of cooperative DNA-binding by transcription factor proteins”.
